Biological target: Aglu1, α-glucosidase of family GH31 from an unknown hyperthermophilic archaeon (unknown hyperthermophilic archaeon (metagenome; family Sulfolobaceae, unclassified genus))
Assay: SEC; gel filtration on Superose 6 10/300, isocratic 20 mM Tris HCl pH 8.0; markers thyroglobulin, apoferritin, BSA, cytochrome C; native mass 462 kDa against 80 kDa for the monomer

stoichiometry N: 6
Substance: Aglu1, α-glucosidase of family GH31 from an unknown hyperthermophilic archaeon (enzyme)

Source: paper PMC9505709, “Valorization of Biomasses from Energy Crops for the Discovery of Novel Thermophilic Glycoside Hydrolases through Metagenomic Analysis” (International Journal of Molecular Sciences, 2022)
